T1: SlNF-YA3b (MBP-6His fusion) (Solanum lycopersicum (tomato) cv. AC)
T1 chain: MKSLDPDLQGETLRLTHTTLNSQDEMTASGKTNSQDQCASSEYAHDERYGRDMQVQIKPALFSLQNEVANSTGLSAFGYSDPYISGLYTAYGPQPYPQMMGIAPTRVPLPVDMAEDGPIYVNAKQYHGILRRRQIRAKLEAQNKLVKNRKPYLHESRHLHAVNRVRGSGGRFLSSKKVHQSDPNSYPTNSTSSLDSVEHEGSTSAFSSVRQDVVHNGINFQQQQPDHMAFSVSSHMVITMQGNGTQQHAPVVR

B1: SFT-box1 (dsDNA)
DNA 1: GAATCAAGACACGATGATATTGGGACGCTTTGGGGTGTAT
DNA 2: ATACACCCCAAAGCGTCCCAATATCATCGTGTCTTGATTC
B2: SFT-box2 (dsDNA)
DNA 1: TAGGGGTAAGGGTAAAATATTGGAAAAATCATTTAAATAT
DNA 2: ATATTTAAATGATTTTTCCAATATTTTACCCTTACCCCTA
B3: SFT-box4-m (dsDNA)
DNA 1: TTAAATTATGTTTTCTTGGGGGGGGTTTCATTCCTTATTTA
DNA 2: TAAATAAGGAATGAAACCCCCCCCAAGAAAACATAATTTAA
B4: SFT-box5-m (dsDNA)
DNA 1: ATGTTTTATCATAAAAATAAAAAATGTTTTTAATATTAATC
DNA 2: GATTAATATTAAAAACATTTTTTATTTTTATGATAAAACAT
B5: SFT-box6-m (dsDNA)
DNA 1: CCCTTCACCTTAGCATCAAAAAATAGGATTTACTACGAG
DNA 2: CTCGTAGTAAATCCTATTTTTTGATGCTAAGGTGAAGGG
B6: SFT-box7-m (dsDNA)
DNA 1: AGTTAGATCAGGCCGGCGGGGGAGACCTAATCCATAGTG
DNA 2: CACTATGGATTAGGTCTCCCCCGCCGGCCTGATCTAACT
B7: SFT-box3 (dsDNA)
DNA 1: GTTAGATTGAAGTTAGTAATTGGTTATCCCACCGATGGATT
DNA 2: AATCCATCGGTGGGATAACCAATTACTAACTTCAATCTAAC
B8: SFT-box4 (dsDNA)
DNA 1: TTAAATTATGTTTTCTTGATTGGGGTTTCATTCCTTATTTA
DNA 2: TAAATAAGGAATGAAACCCCAATCAAGAAAACATAATTTAA
B9: SFT-box5 (dsDNA)
DNA 1: ATGTTTTATCATAAAAATATTGGATGTTTTTAATATTAATC
DNA 2: GATTAATATTAAAAACATCCAATATTTTTATGATAAAACAT
B10: SFT-box6 (dsDNA)
DNA 1: CCCTTCACCTTAGCATCACCAATTAGGATTTACTACGAG
DNA 2: CTCGTAGTAAATCCTAATTGGTGATGCTAAGGTGAAGGG
B11: SFT-box7 (dsDNA)
DNA 1: AGTTAGATCAGGCCGGCCCAATAGACCTAATCCATAGTG
DNA 2: CACTATGGATTAGGTCTATTGGGCCGGCCTGATCTAACT
B12: SFT-box1-m (dsDNA)
DNA 1: GAATCAAGACACGATGATTTTTTGACGCTTTGGGGTGTAT
DNA 2: ATACACCCCAAAGCGTCAAAAAATCATCGTGTCTTGATTC
B13: SFT-box2-m (dsDNA)
DNA 1: TAGGGGTAAGGGTAAAATAAAAAAAAAATCATTTAAATAT
DNA 2: ATATTTAAATGATTTTTTTTTTATTTTACCCTTACCCCTA
B14: SFT-box3-m (dsDNA)
DNA 1: GTTAGATTGAAGTTAGTATTTTTTTATCCCACCGATGGATT
DNA 2: AATCCATCGGTGGGATAAAAAAATACTAACTTCAATCTAAC

Assays:
[1] = target: T1, SlNF-YA3b (MBP-6His fusion); assay: EMSA; EMSA on non-denaturing gels, FAM probes; buffer, salt, pH and temperature not stated; conditions: protein: recombinant; tags: MBP; 6xHis; label: FAM on forward strand (probe); blunt
[2] = target: T1, SlNF-YA3b (MBP-6His fusion); assay: competition; 10- and 30-fold excess vs FAM box 4; EMSA on non-denaturing gels, FAM probes; buffer, salt, pH and temperature not stated; conditions: protein: recombinant; tags: MBP; 6xHis; blunt
[3] = target: T1, SlNF-YA3b (MBP-6His fusion); assay: competition; 10- and 30-fold excess vs FAM box 5; EMSA on non-denaturing gels, FAM probes; buffer, salt, pH and temperature not stated; conditions: protein: recombinant; tags: MBP; 6xHis; blunt
[4] = target: T1, SlNF-YA3b (MBP-6His fusion); assay: competition; 10- and 30-fold excess vs FAM box 6; EMSA on non-denaturing gels, FAM probes; buffer, salt, pH and temperature not stated; conditions: protein: recombinant; tags: MBP; 6xHis; blunt
[5] = target: T1, SlNF-YA3b (MBP-6His fusion); assay: competition; 10- and 30-fold excess vs FAM box 7; EMSA on non-denaturing gels, FAM probes; buffer, salt, pH and temperature not stated; conditions: protein: recombinant; tags: MBP; 6xHis; blunt
[6] = target: T1, SlNF-YA3b (MBP-6His fusion); assay: competition; 10- and 30-fold excess vs FAM box 1; EMSA on non-denaturing gels, FAM probes; buffer, salt, pH and temperature not stated; conditions: protein: recombinant; tags: MBP; 6xHis; blunt
[7] = target: T1, SlNF-YA3b (MBP-6His fusion); assay: competition; 10- and 30-fold excess vs FAM box 2; EMSA on non-denaturing gels, FAM probes; buffer, salt, pH and temperature not stated; conditions: protein: recombinant; tags: MBP; 6xHis; blunt
[8] = target: T1, SlNF-YA3b (MBP-6His fusion); assay: competition; 10- and 30-fold excess vs FAM box 3; EMSA on non-denaturing gels, FAM probes; buffer, salt, pH and temperature not stated; conditions: protein: recombinant; tags: MBP; 6xHis; blunt

| Binder | binding result [1] | other results |
| --- | --- | --- |
| B1 | binds | – |
| B2 | binds | – |
| B3 | – | binding result [2]: no binding |
| B4 | – | binding result [3]: no binding |
| B5 | – | binding result [4]: no binding |
| B6 | – | binding result [5]: no binding |
| B7 | binds | – |
| B8 | binds | – |
| B9 | binds | – |
| B10 | binds | – |
| B11 | binds | – |
| B12 | – | binding result [6]: no binding |
| B13 | – | binding result [7]: no binding |
| B14 | – | binding result [8]: no binding |

Reference: article PMC11116822, “Nuclear factor Y-A3b binds to the SINGLE FLOWER TRUSS promoter and regulates flowering time in tomato”
